Source: the supplement of paper PMC11865577

Test system: TO-3-N3-2 (biotin conjugate)
Assay: pull-down binding Z-score (relative to library population); higher = stronger binding
Conditions: RNA library: Library-2
Outline: (§1)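 To score binding, a beads-only signal was subtracted, barcoded replicate probes were averaged with the highest and lowest dropped, and the value was converted to a Z-score using the library mean and standard deviation. The input was 1 μg of Cy5- or Cy3-end-labelled RNA library, heat-folded in phosphate/NaCl/KCl buffer and mixed for 60 min at 25 °C with streptavidin beads carrying 100 pmol of biotin-conjugated small molecule. Bound RNA was eluted in hot SDS and hybridised to a DNA barcode microarray at 55.5 °C for 20 h.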

Sequence	pull-down binding Z-score
CCUGUCCUAUGACAAACAUGGCAGG [hsa-mir-3927]	-0.497
CCUGUUUGAAUAUUUCACCAGAAACAGG [hsa-mir-4433b]	-0.044
CCUGUUUUACAAAUAAGGAAAUAAACUCAGG [hsa-mir-1321]	-0.326
CCUUAGCACUAGCAGGAGG [hsa-mir-612]	-0.482
CCUUCCAAUACCUGUAAGCAGAAGG [hsa-mir-3158-2]	0.0627
CCUUCGCUUUAUUUGUGACGAAUC [hsa-mir-154]	-0.374
CCUUCUAAUGAGUAUGCUUAACUUGGUAGAAGG [hsa-mir-3914-1]	-0.0963
CCUUCUACCAAGUUAAGCAUACUCAUUAGAAGG [hsa-mir-3914-2]	-0.151
CCUUCUCCUCUUUGCAGUGAUAAAGGAGG [hsa-mir-4460]	-0.351
CCUUCUGCUUACAGGUAUUGGAAGG [hsa-mir-3158-1]	-0.401
CCUUCUGUAUACAUGUAUACAGGAGGAAGG [hsa-mir-4716]	0.0583
CCUUGCCUGUGGCAAGACCACUUCGGUUCAAGG [hsa-mir-4295]	-0.191
CCUUGUGAAUGUCGGGCAAUGG [hsa-mir-4701]	0.357
CCUUUCCCCUCAGACCAAGG [hsa-mir-3131]	-0.26
CCUUUGUGAGCAGUGUGACCCAAGGCCUGUGGACAGGG [hsa-mir-555]	-0.351
CGACUCCGUGGCAGAGUUCA [hsa-mir-3666]	-0.00234
CGAGAAGCGCCUGCGUCUCCCAUUUUCG [hsa-mir-3944]	0.16
CGAGACACAGAAACAGACACCUGCCCUCGA [hsa-mir-151b]	0.464
CGAGCCGCUUCCUCACGGCUCG [hsa-mir-4665]	-0.853
CGAGGUGG [hsa-mir-4302]	-0.0533
CGAGGUGGGCUAGGCUCGGGCCCGUGGCG [hsa-mir-3656]	0.185
CGAGUCUGAGCCUUUAAAAGCCACUCU [hsa-mir-1287]	-0.012
CGAUAAACCCCUAAAUAGGGACUUUCCCG [hsa-mir-484]	-0.266
CGCCAGCUCGCUGACAGCACGACUCAGGGCG [hsa-mir-658]	0.383
CGCGCCCGGCCUAACUUUUAAGAAACGUCGGCCCGGGAGCG [hsa-mir-5095]	0.695
CGCGCGUCGAGUCAGCCGUGUG [hsa-mir-933]	-0.276
CGCGGAGCAGCGCUGGGUGCAGCGCCUG [hsa-mir-4508]	-0.27
CGCGGGCGGGUCCCAGGCUGGGCCCCUCGGAGGCCGGGUGCUCACUGCCCCGUCCCGG [hsa-mir-6789]	-0.0304

Test system: TO-N3 (biotin conjugate)
Assay: as above
Conditions: RNA library: Library-2
Outline: as §1

Sequence	pull-down binding Z-score
CCGCUAGUGGAAGAAGAUGGCGG [hsa-mir-6125]	0.547
CCGGCCCGUUAGUUGCCCGGGCCCG [hsa-mir-3181]	-0.422
CCGGGCGCUGCUCUGACCCCUCGU [hsa-mir-187]	0.875
CCGGGGCAGGAGACCCCGCG [hsa-mir-1470]	-0.351
CCGGGUGCCCACAAGACUGUG [hsa-mir-3138]	1.01
CCGUAUAUAUAUAUAUAUAUAUAUAGAUAUCUCCAUAUAUAUGG [hsa-mir-620]	-1.16
CCGUGCCCUGGCCACUCAUUCGG [hsa-mir-6741]	0.45
CCGUUUAAAAAGGCAUCUCCAAG [hsa-mir-608]	0.0887
CCUAGAGUCCAUUCUUUACUCUAGG [hsa-mir-4779]	-1.18
CCUAGUGGCUAGCCCUGGGUCUAGCAGCCUAUGGCAGUGUCUGGUAAACACUGGUGGAGUCCUGGG [hsa-mir-6745]	0.336
CCUCAAUCACUUGCCAGAGAGAUUGG [hsa-mir-1200]	-0.196
CCUCACCUGCUGAGAG [hsa-mir-3670-3_3670-2_3670-1_3670-4]	-0.143
CCUCCCCCAGUGCCAGG [hsa-mir-3196]	-0.106
CCUCCCUAGGGGAUCCCAGGUAGG [hsa-mir-4688]	0.0963
CCUCGAAGCUGCCUUUAGAAAUGAGG [hsa-mir-4496]	0.176
CCUCUCGGGAACUACAAGUCCCAGGGGG [hsa-mir-2861]	-0.794
CCUCUGUCCUCUGUCCUCUACCUAUAGAGG [hsa-mir-641]	0.118
CCUGACAGACAGCCUGAUAGACAGG [hsa-mir-4661]	1.96
CCUGAUGAAUCUGAGGCCAGG [hsa-mir-577]	-0.18
CCUGCAGCCCCCAGGUGGGGGG [hsa-mir-4271]	0.659
CCUGCAGGUGAGAGCGGGAACACCUGCAU [hsa-mir-7112]	0.311

Sequence	pull-down binding Z-score
CCUGCCACGUCAAAGGAGGCAGA [hsa-mir-3154]	-0.164
CCUGCCCAAAUGGUGGAGCAGAUUCGAGGGGCAGG [hsa-mir-4436b-2_4436b-1]	-0.282
CCUGCCUCAGAACUACUGAACAGAGUCACUGGGUGUGGA [hsa-mir-1289-2]	0.181
CCUGCCUGCCCUCCAGGUCAUGUUCCAGUGUCCCACAGAUGCAGCACCACGG [hsa-mir-6075]	0.616
CCUGCUGUGUGAAACAAAAGUAAG [hsa-mir-302c]	0.103
CCUGGAGAGCUGCUGUCUCCAG [hsa-mir-6746]	0.0297
CCUGUAUGUCUCCCCGCAGCACCGUCAUCGU [hsa-mir-6774]	0.785
CCUGUCCUAUGACAAACAUGGCAGG [hsa-mir-3927]	-0.547
CCUGUUUGAAUAUUUCACCAGAAACAGG [hsa-mir-4433b]	-0.402
CCUGUUUUACAAAUAAGGAAAUAAACUCAGG [hsa-mir-1321]	-0.94
CCUUAGCACUAGCAGGAGG [hsa-mir-612]	-0.556
CCUUCCAAUACCUGUAAGCAGAAGG [hsa-mir-3158-2]	0.0957
CCUUCGCUUUAUUUGUGACGAAUC [hsa-mir-154]	-0.676
CCUUCUAAUGAGUAUGCUUAACUUGGUAGAAGG [hsa-mir-3914-1]	-0.141
CCUUCUACCAAGUUAAGCAUACUCAUUAGAAGG [hsa-mir-3914-2]	0.418
CCUUCUCCUCUUUGCAGUGAUAAAGGAGG [hsa-mir-4460]	-0.61
CCUUCUGCUUACAGGUAUUGGAAGG [hsa-mir-3158-1]	-0.371
CCUUCUGUAUACAUGUAUACAGGAGGAAGG [hsa-mir-4716]	0.495
CCUUGCCUGUGGCAAGACCACUUCGGUUCAAGG [hsa-mir-4295]	0.0379
CCUUGUGAAUGUCGGGCAAUGG [hsa-mir-4701]	0.267
CCUUUCCCCUCAGACCAAGG [hsa-mir-3131]	-0.412
